Source: PMC4552014, “High Affinity Binders to EphA2 Isolated from Abdurin Scaffold Libraries; Characterization, Binding and Tumor Targeting” (PLoS ONE, 2015)

Columns and labels:
human FcRn (human) = human FcRn (human) (UniProt P55899); experiment: SPR; Biacore 3000, on hFcRn; who was immobilised and the conditions not given
[1] = target: T1, hEphA2 on CHOK1-EphA2 cells (human, UniProt P29317 24-976); experiment: flow cytometry on cells; Abdurins at 1nM to 7μM incubated with CHOK1-EphA2 cells; detected with mouse anti-HisTag-FITC; the constant is printed as 'Affinity (M)'; conditions: one partner purified
T1 construct: EphA2, human, transfection-ready hEphA2 cDNA (OriGene Technologies); also called cell-surface expressed hEphA2; source: CHOK1 cells transfected with hEphA2 cDNA (OriGene Technologies), single cell clone, on cells

hEphA2-Fc = target: T2, hEphA2-Fc (human, UniProt P29317 24-537); experiment: ELISA; end-point titration ELISA in 96-well plates coated with hEphA2-Fc or mEphA2-Fc; purified Abdurins titrated; detected by anti-FLAG M2-HRP; the constant is printed as 'Affinity (M)'; conditions: both partners purified
T2 construct: EphA2, human, as Fc fusion coated on 96-well plates; Probably the extracellular domain; also called huEphA2

[2] = target: T3, murine EphA2-Fc fusion protein (mouse, UniProt Q03145 26-538); experiment: as above; conditions: both partners purified
T3 construct: ephrin receptor tyrosine kinase class A2 (EphA2), mouse, extracellular domain as Fc chimera; Biotinylated in-house (EZ-Link Sulfo-NHS-LC-Biotin) for the CIS display selections and the screening ELISA; also called mEphA2-Fc; mEphA2; source: bought: R&D Systems

[3] = target: human EphA2 recombinant protein (human, UniProt P29317 24-976, Construct limits are not given; the soluble recombinant receptor is taken as the mature extracellular domain from the UniProt features. The Fig 3 legend names an Fc fusion (hEphA2-Fc), and the Fc is); experiment: SPR; Biacore 3000; hEphA2 immobilised on CM5 chip by amine coupling (500 RU); Abdurins as analyte, multi-cycle kinetics in HBS-P (50 mM Hepes pH 7.4, 150 mM NaCl, 0.005% P-20), 40 μl/minute; 1:1 binding model; repeated three times; conditions: both partners purified
[4] = target: T3, murine EphA2-Fc fusion protein; experiment: SPR; Biacore 3000, on mEphA2; purified Abdurins from E. coli; immobilisation for mEphA2 not described; conditions: both partners purified

T3 sequence (Q03145 26-538): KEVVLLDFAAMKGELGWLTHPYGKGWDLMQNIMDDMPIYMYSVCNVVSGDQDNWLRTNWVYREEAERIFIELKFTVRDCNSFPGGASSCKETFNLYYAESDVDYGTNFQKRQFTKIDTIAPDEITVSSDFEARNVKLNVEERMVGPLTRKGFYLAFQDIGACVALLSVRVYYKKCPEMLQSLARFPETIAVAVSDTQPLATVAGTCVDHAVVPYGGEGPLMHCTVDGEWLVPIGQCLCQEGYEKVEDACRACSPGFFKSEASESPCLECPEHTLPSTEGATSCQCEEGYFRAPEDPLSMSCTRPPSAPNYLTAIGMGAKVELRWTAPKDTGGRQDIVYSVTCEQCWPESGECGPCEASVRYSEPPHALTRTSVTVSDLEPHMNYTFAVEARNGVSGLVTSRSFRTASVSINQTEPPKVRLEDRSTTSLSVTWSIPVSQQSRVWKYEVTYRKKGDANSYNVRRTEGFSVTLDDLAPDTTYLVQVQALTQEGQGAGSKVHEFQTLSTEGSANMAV
T2 sequence (P29317 24-537): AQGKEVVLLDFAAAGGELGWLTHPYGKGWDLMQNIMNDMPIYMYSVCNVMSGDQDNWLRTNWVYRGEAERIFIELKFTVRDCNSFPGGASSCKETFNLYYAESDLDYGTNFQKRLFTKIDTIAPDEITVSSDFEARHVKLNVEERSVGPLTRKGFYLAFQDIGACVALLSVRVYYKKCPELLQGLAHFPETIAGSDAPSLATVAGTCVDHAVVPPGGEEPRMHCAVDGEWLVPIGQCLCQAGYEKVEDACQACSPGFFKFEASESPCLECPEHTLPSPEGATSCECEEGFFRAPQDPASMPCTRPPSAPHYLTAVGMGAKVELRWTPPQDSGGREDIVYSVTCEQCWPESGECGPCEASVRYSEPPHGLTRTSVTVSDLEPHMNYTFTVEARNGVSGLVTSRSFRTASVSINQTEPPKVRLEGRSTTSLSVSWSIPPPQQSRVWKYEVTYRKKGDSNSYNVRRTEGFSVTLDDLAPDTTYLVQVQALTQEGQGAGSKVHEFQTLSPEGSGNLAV
T1 sequence (P29317 24-976): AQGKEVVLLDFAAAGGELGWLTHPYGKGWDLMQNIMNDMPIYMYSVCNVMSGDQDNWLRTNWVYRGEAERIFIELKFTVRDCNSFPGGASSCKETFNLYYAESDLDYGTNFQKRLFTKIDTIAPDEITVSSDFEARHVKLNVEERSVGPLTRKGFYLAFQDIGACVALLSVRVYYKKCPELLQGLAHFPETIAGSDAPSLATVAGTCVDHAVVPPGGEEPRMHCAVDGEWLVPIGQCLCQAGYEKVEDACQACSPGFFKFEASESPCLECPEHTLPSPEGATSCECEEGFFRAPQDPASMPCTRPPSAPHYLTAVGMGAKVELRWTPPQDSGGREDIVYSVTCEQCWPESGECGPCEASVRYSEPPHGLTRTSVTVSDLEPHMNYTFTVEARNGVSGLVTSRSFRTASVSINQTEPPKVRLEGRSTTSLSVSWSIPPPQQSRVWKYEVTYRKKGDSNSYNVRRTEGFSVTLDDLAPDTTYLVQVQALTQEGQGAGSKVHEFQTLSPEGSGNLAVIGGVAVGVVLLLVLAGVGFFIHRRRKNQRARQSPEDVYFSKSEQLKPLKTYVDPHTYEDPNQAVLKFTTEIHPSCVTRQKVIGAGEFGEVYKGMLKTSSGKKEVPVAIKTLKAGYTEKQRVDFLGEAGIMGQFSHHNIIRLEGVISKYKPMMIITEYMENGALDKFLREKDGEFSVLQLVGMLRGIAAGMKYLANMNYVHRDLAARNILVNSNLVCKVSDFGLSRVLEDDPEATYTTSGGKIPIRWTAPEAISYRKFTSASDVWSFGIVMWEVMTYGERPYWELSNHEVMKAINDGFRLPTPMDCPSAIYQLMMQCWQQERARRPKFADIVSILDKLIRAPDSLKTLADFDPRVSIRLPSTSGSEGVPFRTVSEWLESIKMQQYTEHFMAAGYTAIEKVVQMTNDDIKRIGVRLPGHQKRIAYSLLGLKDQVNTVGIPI
human EphA2 recombinant protein, sequence (P29317 24-976): as above

Work on “shWTCH2 (version of the wild-type CH2 domain that has the N-terminal seven amino acids truncated) (domain or fragment)” yielded a Kd (human FcRn (human)) of 25 nM, a koff (human FcRn (human)) of 0.017 s⁻¹ and a kon (human FcRn (human)) of 1.5e+06 M⁻¹ s⁻¹.

B1: Abdurin B11, affinity matured EphA2 binder (designed binder)
chain: GPSVFLFPPKPKDTLMISRTPEVTCVVVDYRADYLEVKFNWYVDGVEVHNAKTKPRQYDPLYGYRVVSVLTVLHQDWLNGKEYKCKVSNKALPAPIEKTISKAK
notes: Abdurin scaffold (human IgG1 CH2 domain), stretch before loop BC; loop BC of matured clone B11, in place of Val266-Pro271 (VSHEDP) of the scaffold; Abdurin scaffold (human IgG1 CH2 domain), stretch between loops BC and DE; loop DE from the parental clone E10, in place of Glu293-Thr299 (EEQYNST); Abdurin scaffold (human IgG1 CH2 domain), stretch after loop DE; Not the phage loop DE clone of the …
For B1, the Kd [1] was 403 nM, the Kd (human FcRn (human)) was 26 nM and the koff (human FcRn (human)) was 0.013 s⁻¹. It also gave a kon (human FcRn (human)) of 1.1e+06 M⁻¹ s⁻¹, a Kd (hEphA2-Fc) of 4.43 nM and a Kd [2] of 9.89 nM. For the same molecule, the koff [3] was 0.0158 s⁻¹ and the kon [3] was 1.21e+06 M⁻¹ s⁻¹.

B2: Abdurin B6, affinity matured EphA2 binder (designed binder)
chain: GPSVFLFPPKPKDTLMISRTPEVTCVVVDPYLHDDEVKFNWYVDGVEVHNAKTKPRQYDPLYGYRVVSVLTVLHQDWLNGKEYKCKVSNKALPAPIEKTISKAK
notes: Abdurin scaffold (human IgG1 CH2 domain), stretch before loop BC; loop BC of matured clone B6, in place of Val266-Pro271 (VSHEDP) of the scaffold; Abdurin scaffold (human IgG1 CH2 domain), stretch between loops BC and DE; loop DE from the parental clone E10, in place of Glu293-Thr299 (EEQYNST); Abdurin scaffold (human IgG1 CH2 domain), stretch after loop DE; source: E. coli Shuffle cells, …
For B2, the Kd [1] was 151 nM, the Kd (human FcRn (human)) was 38 nM and the koff (human FcRn (human)) was 0.011 s⁻¹. The kon (human FcRn (human)) was 1.1e+06 M⁻¹ s⁻¹, the Kd (hEphA2-Fc) was 6.54 nM and the Kd [2] was 3.5 nM. For the same molecule, the koff [3] was 0.0496 s⁻¹ and the kon [3] was 716000 M⁻¹ s⁻¹.

B3: Abdurin D2, affinity matured EphA2 binder (designed binder)
chain: GPSVFLFPPKPKDTLMISRTPEVTCVVVDYEAAALEVKFNWYVDGVEVHNAKTKPRQYDPLYGYRVVSVLTVLHQDWLNGKEYKCKVSNKALPAPIEKTISKAK
notes: Abdurin scaffold (human IgG1 CH2 domain), stretch before loop BC; loop BC of matured clone D2, in place of Val266-Pro271 (VSHEDP) of the scaffold; Abdurin scaffold (human IgG1 CH2 domain), stretch between loops BC and DE; loop DE from the parental clone E10, in place of Glu293-Thr299 (EEQYNST); Abdurin scaffold (human IgG1 CH2 domain), stretch after loop DE; Not the phage loop DE clone of the …
With B3 the Kd [1] was 1310 nM, the Kd (hEphA2-Fc) was 2.55 nM and the Kd [2] was 1.97 nM.

B4: Abdurin G7, affinity matured EphA2 binder (designed binder)
chain: GPSVFLFPPKPKDTLMISRTPEVTCVVVDPHLGVDEVKFNWYVDGVEVHNAKTKPRQYDPLYGYRVVSVLTVLHQDWLNGKEYKCKVSNKALPAPIEKTISKAK
notes: Abdurin scaffold (human IgG1 CH2 domain), stretch before loop BC; loop BC of matured clone G7, in place of Val266-Pro271 (VSHEDP) of the scaffold; Abdurin scaffold (human IgG1 CH2 domain), stretch between loops BC and DE; loop DE from the parental clone E10, in place of Glu293-Thr299 (EEQYNST); Abdurin scaffold (human IgG1 CH2 domain), stretch after loop DE; source: E. coli Shuffle cells, …
B4 showed a Kd [1] of 333 nM, a Kd (hEphA2-Fc) of 8.06 nM and a Kd [2] of 3.18 nM. For the same molecule, the koff [3] was 0.0375 s⁻¹ and the kon [3] was 1.8e+06 M⁻¹ s⁻¹.

B5: Abdurin H6, purified loop DE binder (designed binder)
chain: GPSVFLFPPKPKDTLMISRTPEVTCVVVDVSHEDPEVKFNWYVDGVEVHNAKTKPRRVDPLGGYRVVSVLTVLHQDWLNGKEYKCKVSNKALPAPIEKTISKAK
notes: Abdurin scaffold (human IgG1 CH2 domain), stretch before loop DE; loop DE of clone H6, in place of Glu293-Thr299 (EEQYNST) of the scaffold; Abdurin scaffold (human IgG1 CH2 domain), stretch after loop DE
Work on B5 yielded a Kd [4] of 873 nM, a koff [4] of 0.008 s⁻¹ and a kon [4] of 9610 M⁻¹ s⁻¹.
